Measurements from patent US20180172683A1, “METHODS FOR ANALYZING THE INTERACTION BETWEEN A TARGET PROTEIN AND A LIGAND” (UNIVERSITY OF SOUTHERN CALIFORNIA, priority 2015, published 2018).
Ends that are not written are not given here.

How the values were obtained:
[1] = biological target: B-cell lymphoma extra-large protein (Bcl-xL), first 209 amino acids with N-terminal avitag (UniProt Q07817); test: HTSK: from on- and off-rates of the mRNA-peptide fusion
[2] = biological target: B-cell lymphoma extra-large protein (Bcl-xL), first 209 amino acids with N-terminal avitag (UniProt Q07817); test: HTSK: mRNA-peptide fusion pool on Bcl-xL beads, next-generation sequencing

B-cell lymphoma extra-large protein (Bcl-xL), first 209 amino acids with N-terminal avitag, sequence (Q07817 other isoform, or with tags, fused parts or gaps): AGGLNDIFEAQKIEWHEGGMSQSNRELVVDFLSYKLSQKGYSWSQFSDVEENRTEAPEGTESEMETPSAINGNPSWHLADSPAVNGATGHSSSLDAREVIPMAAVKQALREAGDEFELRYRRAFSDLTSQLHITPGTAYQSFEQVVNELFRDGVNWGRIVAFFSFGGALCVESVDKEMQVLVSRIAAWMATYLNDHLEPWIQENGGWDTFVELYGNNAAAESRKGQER

Row | Kd [1] | koff [2] | Binder
1 | 0.0024 nM | 3.3e-07 s⁻¹ | MIDTNVILNYKKAADHFSITM (peptide, not shown: a dimerising Fc or GST, not fully specified; also: C-terminus joined via puromycin to DNA linker and reverse-transcribed mRNA) [D79, mRNA-peptide fusion in the doped selection pool (HTSK)]
2 | 0.023 nM | 2.5e-06 s⁻¹ | MIETITIYNYKKAADHFSMSM (peptide, not shown: a dimerising Fc or GST, not fully specified; also: C-terminus joined via puromycin to DNA linker and reverse-transcribed mRNA) [E1, mRNA-peptide fusion in the selection pool (HTSK)]
3 | 0.015 nM | 1e-06 s⁻¹ | MIAISTIYNYKKAADHYAMTK (peptide, not shown: a dimerising Fc or GST, not fully specified; also: C-terminus joined via puromycin to DNA linker and reverse-transcribed mRNA) [D1, mRNA-peptide fusion in the selection pool (HTSK)]
